# From article PMC8956256 (Science Advances, 2022)
# B1: Human TMEM175 (transmembrane protein 175) (natural protein)
# chain: MSQPRTPEQALDTPGDCPPGRRDEDAGEGIQCSQRMLSFSDALLSIIATVMILPVTHTEISPEQQFDRSVQRLLATRIAVYLMTFLIVTVAWAAHTRLFQVVGKTDDTLALLNLACMMTITFLPYTFSLMVTFPDVPLGIFLFCVCVIAIGVVQALIVGYAFHFPHLLSPQIQRSAHRALYRRHVLGIVLQGPALCFAAAIFSLFFVPLSYLLMVTVILLPYVSKVTGWCRDRLLGHREPSAHPVEVFSFDLHEPLSKERVEAFSDGVYAIVATLLILDICEDNVPDPKDVKERFSGSLVAALSATGPRFLAYFGSFATVGLLWFAHHSLFLHVRKATRAMGLLNTLSLAFVGGLPLAYQQTSAFARQPRDELERVRVSCTIIFLASIFQLAMWTTALLHQAETLQPSVWFGGREHVLMFAKLALYPCASLLAFASTCLLSRFSVGIFHLMQIAVPCAFLLLRLLVGLALATLRVLRGLARPEHPPPAPTGQDDPQSQLLPAPC
# Target: the molecule itself
# Test: cryo-EM structure
protein,measurement,value
B1,stoichiometry N,2
